Tests used:
[1] = molecular target: purified bovine cathepsin B (bovine)
[2] = molecular target: recombinant human cathepsin L (human) (UniProt P07711)
[3] = molecular target: purified bovine cathepsin C (bovine)
[4] = molecular target: recombinant human cathepsin S (human) (UniProt P25774)
[5] = molecular target: T1, purified human cathepsin H (human)
T1 sequence (P09668 116-335, looked up): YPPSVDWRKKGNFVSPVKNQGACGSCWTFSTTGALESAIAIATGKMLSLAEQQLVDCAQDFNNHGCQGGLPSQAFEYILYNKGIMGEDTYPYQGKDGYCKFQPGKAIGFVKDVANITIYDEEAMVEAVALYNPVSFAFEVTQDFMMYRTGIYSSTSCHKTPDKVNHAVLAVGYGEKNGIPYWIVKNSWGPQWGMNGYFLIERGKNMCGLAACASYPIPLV

purified papain = molecular target: T2, purified papain (UniProt P00784)
T2 sequence: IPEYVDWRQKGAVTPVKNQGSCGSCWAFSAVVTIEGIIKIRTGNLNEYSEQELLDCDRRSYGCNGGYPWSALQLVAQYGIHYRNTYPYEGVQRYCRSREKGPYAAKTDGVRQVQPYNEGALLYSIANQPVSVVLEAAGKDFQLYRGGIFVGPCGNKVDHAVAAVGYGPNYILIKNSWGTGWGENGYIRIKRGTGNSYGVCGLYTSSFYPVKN

[6] = molecular target: sialostatin L (Ixodes scapularis) (UniProt Q8MVB6); assay: crystal structure

Sequence of purified chicken egg white cystatin (P01038 24-139): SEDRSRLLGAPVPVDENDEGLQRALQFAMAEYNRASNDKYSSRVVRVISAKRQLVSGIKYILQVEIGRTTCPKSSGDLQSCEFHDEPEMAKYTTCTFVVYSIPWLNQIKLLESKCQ
Sequence of purified bovine cathepsin C (bovine) (Q3ZCJ8 25-463): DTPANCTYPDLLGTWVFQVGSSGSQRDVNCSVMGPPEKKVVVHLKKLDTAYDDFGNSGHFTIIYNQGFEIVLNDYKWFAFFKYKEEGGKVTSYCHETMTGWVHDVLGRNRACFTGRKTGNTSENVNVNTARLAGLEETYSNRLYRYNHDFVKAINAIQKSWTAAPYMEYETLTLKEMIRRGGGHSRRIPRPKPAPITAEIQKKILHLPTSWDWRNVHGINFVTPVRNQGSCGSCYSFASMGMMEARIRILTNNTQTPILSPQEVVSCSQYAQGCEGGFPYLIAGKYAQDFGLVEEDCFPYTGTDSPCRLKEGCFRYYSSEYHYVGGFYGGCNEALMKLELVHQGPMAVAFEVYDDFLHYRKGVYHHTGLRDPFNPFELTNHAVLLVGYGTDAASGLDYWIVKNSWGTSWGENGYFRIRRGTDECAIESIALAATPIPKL
Sequence of recombinant human cathepsin S (human) (P25774 17-331): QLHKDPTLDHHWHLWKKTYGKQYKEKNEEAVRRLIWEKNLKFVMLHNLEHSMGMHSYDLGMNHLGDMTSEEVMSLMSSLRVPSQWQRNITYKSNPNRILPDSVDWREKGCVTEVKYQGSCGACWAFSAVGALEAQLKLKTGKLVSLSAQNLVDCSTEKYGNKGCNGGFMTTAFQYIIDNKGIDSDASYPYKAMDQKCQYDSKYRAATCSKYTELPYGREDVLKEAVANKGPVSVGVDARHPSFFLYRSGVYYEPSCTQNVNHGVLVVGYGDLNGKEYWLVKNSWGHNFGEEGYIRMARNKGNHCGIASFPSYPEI
Sequence of recombinant human cathepsin L (human) (P07711 18-333): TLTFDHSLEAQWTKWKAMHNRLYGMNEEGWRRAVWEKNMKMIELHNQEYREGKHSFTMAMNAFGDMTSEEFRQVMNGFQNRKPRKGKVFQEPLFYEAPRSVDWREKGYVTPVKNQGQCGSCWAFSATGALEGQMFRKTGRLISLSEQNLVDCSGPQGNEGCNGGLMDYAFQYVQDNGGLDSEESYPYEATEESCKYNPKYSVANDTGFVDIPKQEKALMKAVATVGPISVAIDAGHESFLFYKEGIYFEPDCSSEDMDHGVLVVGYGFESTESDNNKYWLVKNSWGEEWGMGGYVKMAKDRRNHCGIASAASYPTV

Row | Substance | IC50 of inhibition of enzyme activity (fluorogenic substrate) [1] | IC50 of inhibition of enzyme activity (fluorogenic substrate) [2] | IC50 of inhibition of enzyme activity (fluorogenic substrate) [3] | IC50 of inhibition of enzyme activity (fluorogenic substrate) [4] | IC50 of inhibition of enzyme activity (fluorogenic substrate) [5] | IC50 of inhibition of enzyme activity (fluorogenic substrate) (purified papain) | stoichiometry N [6]
1 | purified chicken egg white cystatin (from UniProt P01038 24-139) (natural protein) | 800 nM | 2.9 nM | 3.1 nM | 3.2 nM | 39 nM | 4.4 nM | 
2 | sialostatin L (from UniProt Q8MVB6 20-133) (natural protein) |  |  |  |  |  |  | 2

From PMC2909360
